Results as given in patent US20250115669A1, “FGFR1/KLB Targeting Agonistic Antigen-Binding Proteins and Conjugates Thereof with GLP-1R Agonistic Peptides” (SANOFI, priority 2020, published 2025).
Changes are numbered by the printed parent chain. Names and notes keep the numbering of the source.

T1: human beta-Klotho (Homo sapiens, UniProt Q86Z14)
T1 sequence (Q86Z14 1-1044): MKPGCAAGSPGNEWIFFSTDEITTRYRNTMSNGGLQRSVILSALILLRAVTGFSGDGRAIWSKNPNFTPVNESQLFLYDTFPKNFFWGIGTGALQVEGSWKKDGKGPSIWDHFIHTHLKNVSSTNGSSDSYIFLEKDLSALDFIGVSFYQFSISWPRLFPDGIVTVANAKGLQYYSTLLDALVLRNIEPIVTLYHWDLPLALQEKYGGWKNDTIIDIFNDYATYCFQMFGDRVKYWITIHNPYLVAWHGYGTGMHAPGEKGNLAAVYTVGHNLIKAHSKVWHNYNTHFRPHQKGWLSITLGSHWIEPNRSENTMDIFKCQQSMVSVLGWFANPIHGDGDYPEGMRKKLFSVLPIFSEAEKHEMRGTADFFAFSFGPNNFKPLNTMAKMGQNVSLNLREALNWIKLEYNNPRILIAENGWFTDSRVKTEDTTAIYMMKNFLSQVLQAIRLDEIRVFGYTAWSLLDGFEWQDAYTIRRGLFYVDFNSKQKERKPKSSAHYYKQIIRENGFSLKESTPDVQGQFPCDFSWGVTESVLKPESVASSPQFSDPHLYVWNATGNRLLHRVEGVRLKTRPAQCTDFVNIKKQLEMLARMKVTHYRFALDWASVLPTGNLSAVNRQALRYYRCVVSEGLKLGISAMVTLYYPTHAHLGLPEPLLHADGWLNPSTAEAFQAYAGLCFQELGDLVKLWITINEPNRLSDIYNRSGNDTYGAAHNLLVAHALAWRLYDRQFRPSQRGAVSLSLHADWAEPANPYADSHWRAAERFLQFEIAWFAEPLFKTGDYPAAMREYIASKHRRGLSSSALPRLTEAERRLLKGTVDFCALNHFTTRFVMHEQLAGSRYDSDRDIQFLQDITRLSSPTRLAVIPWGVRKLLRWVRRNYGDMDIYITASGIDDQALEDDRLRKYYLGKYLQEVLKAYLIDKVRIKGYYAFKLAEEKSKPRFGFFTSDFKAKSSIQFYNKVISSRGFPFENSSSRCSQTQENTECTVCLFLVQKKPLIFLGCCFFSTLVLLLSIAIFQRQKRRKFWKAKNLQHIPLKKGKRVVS

B1: Ab0319: IgG4 PE; 16H7 VL (D49Y, D50E, D91T, N93E); 16H7 VH (M34V, I83T, D109E) (antibody)
VH: QVTLKESGPVLVKPTETLTLTCTVSGFSLNNARVGVSWIRQPPGKALEWLAHIFSNDEKSYSTSLKSRLTISKDTSKSQVVLTMTNMDPVDTATYYCARSVVTGGYYYEGMDVWGQGTTVTVSS
light: SYVLTQPPSVSVAPGQTARITCGGNNIGSESVHWYQQKPGQAPVLVVYYESDRPSGIPERFSGSNSGNTATLTISRVEAGDEADYYCQVWTGESDHVVFGGGTKLTVLGQPKANPTVTLFPPSSEELQANKATLVCLISDFYPGAVTVAWKADGSPVKAGVETTKPSKQSNNKYAASSYLSLTPEQWKSHRSYSCQVTHEGSTVEKTVAPTECS
B2: Ab0389: IgG4 PE; 16H7 VL (Y48del, D95S, W90F, S1C, S94C); 16H7 VH (M34V, H52S, F54W, I83T, D109E) (antibody)
VH: B1 VH with H52S, F54W
light: CYVLTQPPSVSVAPGQTARITCGGNNIGSESVHWYQQKPGQAPVLVVDDSDRPSGIPERFSGSNSGNTATLTISRVEAGDEADYYCQVFDGNCSHVVFGGGTKLTVLGQPKANPTVTLFPPSSEELQANKATLVCLISDFYPGAVTVAWKADGSPVKAGVETTKPSKQSNNKYAASSYLSLTPEQWKSHRSYSCQVTHEGSTVEKTVAPTECS
B3: Ab0382: IgG4 PE; 16H7 VL (Y48del, D95V, W90F, S94C, H96C); 16H7 VH (M34V, H52S, F54W, I83T, D109E) (antibody)
VH: B1 VH with H52S, F54W
light: B2 light with C1S, S94V, H95C
B4: Ab0374: IgG4 PE; 16H7 VL (Y48del, D95E, W90F); 16H7 VH (M34V, F54W, I83T, D109E) (antibody)
VH: B1 VH with F54W
light: B2 light with C1S, C93S, S94E
B5: Ab0376: IgG4 PE; 16H7 VL (Y48del, D95E, W90F, S94C, H96C); 16H7 VH (M34V, F54W, I83T, D109E) (antibody)
VH: B1 VH with F54W
light: B2 light with C1S, S94E, H95C
B6: Ab0377: IgG4 PE; 16H7 VL (Y48del, D95V, W90F); 16H7 VH (M34V, F54W, I83T, D109E) (antibody)
VH: B1 VH with F54W
light: B2 light with C1S, C93S, S94V
B7: Ab0371: IgG4 PE; 16H7 VL (Y48del, D95E, W90H); 16H7 VH (M34V, H52W, I83T, D109E) (antibody)
VH: B1 VH with H52W
light: B2 light with C1S, F89H, C93S, S94E
B8: Ab0393: IgG4 PE; 16H7 VL (Y48del, D95S, W90F, S94C, H96C); 16H7 VH (M34V, H52W, I83T, D109E) (antibody)
VH: B1 VH with H52W
light: B2 light with C1S, H95C
B9: Ab0378: IgG4 PE; 16H7 VL (Y48del, D95V, W90F); 16H7 VH (M34V, H52S, F54W, I83T, D109E) (antibody)
VH: B1 VH with H52S, F54W
light: B2 light with C1S, C93S, S94V
B10: Ab0383: IgG4 PE; 16H7 VL (Y48del, D95V, W90F); 16H7 VH (M34V, H52W, I83T, D109E) (antibody)
VH: B1 VH with H52W
light: B2 light with C1S, C93S, S94V
B11: Ab0391: IgG4 PE; 16H7 VL (Y48del, D95S, W90F, S94C, H96C); 16H7 VH (M34V, H52S, F54W, I83T, D109E) (antibody)
VH: B1 VH with H52S, F54W
light: B2 light with C1S, H95C
B12: Ab0392: IgG4 PE; 16H7 VL (Y48del, D95S, W90F); 16H7 VH (M34V, H52W, I83T, D109E) (antibody)
VH: B1 VH with H52W
light: B2 light with C1S, C93S
B13: Ab0379: IgG4 PE; 16H7 VL (Y48del, D95V, W90F, S1C, S94C); 16H7 VH (M34V, F54W, I83T, D109E) (antibody)
VH: B1 VH with F54W
light: B2 light with S94V
B14: Ab0372: IgG4 PE; 16H7 VL (Y48del, D95E, W90H, S1C, S94C); 16H7 VH (M34V, H52W, I83T, D109E) (antibody)
VH: B1 VH with H52W
light: B2 light with F89H, S94E
B15: Ab0373: IgG4 PE; 16H7 VL (Y48del, D95E, W90H, S94C, H96C); 16H7 VH (M34V, H52W, I83T, D109E) (antibody)
VH: B1 VH with H52W
light: B2 light with C1S, F89H, S94E, H95C
B16: Ab0380: IgG4 PE; 16H7 VL (Y48del, D95V, W90F, S1C, S94C); 16H7 VH (M34V, H52S, F54W, I83T, D109E) (antibody)
VH: B1 VH with H52S, F54W
light: B2 light with S94V
B17: Ab0320: IgG4 PE; 16H7 VL (N25S, D49Y, D50E, D91T, N93E); 16H7 VH (M34V, I83T, D109E) (antibody)
VH: B1 VH
light: B1 light with N25S
B18: Ab0390: IgG4 PE; 16H7 VL (Y48del, D95S, W90F, S94C, H96C); 16H7 VH (M34V, F54W, I83T, D109E) (antibody)
VH: B1 VH with F54W
light: B2 light with C1S, H95C
B19: Ab0381: IgG4 PE; 16H7 VL (Y48del, D95V, W90F, S94C, H96C); 16H7 VH (M34V, F54W, I83T, D109E) (antibody)
VH: B1 VH with F54W
light: B2 light with C1S, S94V, H95C

The molecules below were run against T1, human beta-Klotho (assay: SPR off-rate screening of antibody mutants (human beta-Klotho captured by anti-His antibody)). Conditions: mean, n=3.
Format: binding
Description: Screening of antibody mutants for binding to human beta-Klotho was determined in a different SPR assay set up. Human beta-Klotho was affinity captured by an anti-His antibody (from His capture kit, GE Healthcare) that was immobilized to a series S CM5 chip (GE Healthcare) by amine reactive coupling as described above. The antibody samples were used as analytes at 50 nmol/L concentration. Association time was 240 sec and dissociation time was 300 sec. Chip surfaces were regenerated using the regeneration solution supplied with the His capture kit. The off-rates (kd) were determined using single exponential fitting in the Biacore 8K Evaluation Software version 1.1.1.7442 (GE Healthcare).

Row | Molecule | koff human KLB
1 | B1 | invalid fit
2 | B2 | no binding
3 | B3 | no binding
4 | B4 | no binding
5 | B5 | no binding
6 | B6 | no binding
7 | B7 | no binding
8 | B8 | no binding
9 | B9 | no binding
10 | B10 | no binding
11 | B11 | no binding
12 | B12 | no binding
13 | B13 | no binding
14 | B14 | no binding
15 | B15 | no binding
16 | B16 | no binding
17 | B17 | invalid fit
18 | B18 | no binding
19 | B19 | no binding
